This passage reports Kd and IC50 results from patent US20250090699A1, “FAP TARGETING CYCLIC PEPTIDES AND CONJUGATES THEREOF” (Novartis AG, priority 2023, published 2025).

Like-named read-outs stand apart in the source and are kept apart here. Starred links: 1 amine or outer side, 2 acyl side, 3 side chain; linkers in the order of their positions; H or OH if unused. Positions of bridges follow the written chain, without caps; N, C: chain ends. Non-standard residues stand in square brackets, D forms with d. Residues, ends and D or L forms follow the SMILES beside them. Groups on a side chain read outwards from the residue. Chains are numbered I, II in the order given. *: point of attachment. F(4amPEG2NHDOTA-Lu) = lutetium complex of (S)-2,2',2''-(10-(1-(4-(2-amino-2-carboxyethyl)phenyl)-3,12-dioxo-5,8-dioxa-2,11-diazatridecan-13-yl)-1,4,7,10-tetraazacyclododecane-1,4,7-triyl)triacetic acid (Phe with 4-aminomethyl-PEG2-DOTA-Lu), O=C([O-])CN1CCN(CC(=O)[O-])CCN(CC(=O)NCCOCCOCC(=O)NCc2ccc(C[C@H](N[*:1])C(=O)[*:2])cc2)CCN(CC(=O)[O-])CC1.[Lu+3]; F4(amMeGlyDOTALu) = lutetium complex of (S)-2,2',2''-(10-(2-((2-((4-(2-amino-2-carboxyethyl)benzyl)amino)-2-oxoethyl)(methyl)amino)-2-oxoethyl)-1,4,7,10-tetraazacyclododecane-1,4,7-triyl)triacetic acid (Phe with 4-aminomethyl-N-methyl-Gly-D, CN(CC(=O)NCc1ccc(C[C@H](N[*:1])C(=O)[*:2])cc1)C(=O)CN1CCN(CC(=O)[O-])CCN(CC(=O)[O-])CCN(CC(=O)[O-])CC1.[Lu+3]; F(4OEtNHDOTA-Lu) = lutetium complex of (S)-2,2',2''-(10-(2-((2-(4-(2-amino-2-carboxyethyl)phenoxy)ethyl)amino)-2-oxoethyl)-1,4,7,10-tetraazacyclododecane-1,4,7-triyl)triacetic acid (Phe with 4-O-ethylamino-DOTA-Lu), O=C([O-])CN1CCN(CC(=O)[O-])CCN(CC(=O)NCCOc2ccc(C[C@H](N[*:1])C(=O)[*:2])cc2)CCN(CC(=O)[O-])CC1.[Lu+3]; X2 = O=C(O)CN1CCN(CC(=O)O)CCN(CC(=O)NC(CC(=O)NCCOCCOCCOCC(=O)[*:1])CC(=O)NCCOCCOCCOCC(=O)[*:2])CCN(CC(=O)O)CC1; Q(Pyrro(2CN4F2)) = 2-amino-5-(2-cyano-4,4-difluoropyrrolidin-1-yl)-5-oxopentanoic acid; COpipzaa = 4-(carboxymethyl)piperazine-1-carbonyl, O=C(O)CN1CCN(C(=O)*)CC1; DOTA(Lu) = O=C1CN2CCN3CCN(CC(=O)*)CCN(CC2)CC(=O)[O][Lu]([O]1)[O]C(=O)C3; hS(Pr) = O-propyl-L-homoserine, CCCOCC[C@H](N[*:1])C(=O)[*:2]; Piperazinyl(4-CH2COOH) = O=C(O)CN1CCN(*)CC1; AEF = NCCOc1ccc(C[C@H](N)C(=O)O)cc1; NMeF = CN[C@@H](Cc1ccccc1)C(=O)O; Ahp(2) = CCCCC[C@H](N)C(=O)O; CO = O=C([*:1])[*:2]

Assay [1] concerns the target T1, human FAP (Homo sapiens, UniProt Q12884).
T1 construct: the biotinylated His, Avi tag, human FAP (26-760, FAP-H82Q6); His; Avi tag (biotinylated); purchased AcroBiosystems FAP-H82Q6
T1 sequence (Q12884 26-760): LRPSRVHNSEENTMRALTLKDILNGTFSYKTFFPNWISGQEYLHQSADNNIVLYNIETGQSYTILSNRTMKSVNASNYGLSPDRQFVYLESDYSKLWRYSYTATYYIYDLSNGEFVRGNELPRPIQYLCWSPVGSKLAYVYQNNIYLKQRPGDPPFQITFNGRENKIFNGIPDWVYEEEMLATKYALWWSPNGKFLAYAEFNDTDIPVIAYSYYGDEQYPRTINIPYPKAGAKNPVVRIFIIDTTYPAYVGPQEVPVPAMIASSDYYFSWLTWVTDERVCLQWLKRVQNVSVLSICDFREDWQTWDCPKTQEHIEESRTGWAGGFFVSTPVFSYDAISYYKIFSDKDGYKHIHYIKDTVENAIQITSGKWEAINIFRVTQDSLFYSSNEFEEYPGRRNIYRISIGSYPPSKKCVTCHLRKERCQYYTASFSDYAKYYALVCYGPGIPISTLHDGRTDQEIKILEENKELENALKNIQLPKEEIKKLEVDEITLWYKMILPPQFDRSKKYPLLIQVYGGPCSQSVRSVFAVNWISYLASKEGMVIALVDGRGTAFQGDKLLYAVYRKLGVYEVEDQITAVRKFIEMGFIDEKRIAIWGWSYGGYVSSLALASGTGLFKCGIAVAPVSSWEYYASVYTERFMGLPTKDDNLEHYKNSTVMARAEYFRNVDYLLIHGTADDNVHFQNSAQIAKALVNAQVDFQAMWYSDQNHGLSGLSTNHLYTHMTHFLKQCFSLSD
In words: Surface plasmon resonance (SPR) for peptide affinity, human FAP. The settings on record: read-out: h. FAP, SPR, KD. It is filed as binding. Put shortly: (§1)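 Biotinylated His/Avi-tagged FAP ectodomains (human 26-760, mouse 26-761) captured or immobilized on Biacore sensor chips; peptides run at 25 °C in HBS-EP+ pH 7.6 with 2% DMSO, single-cycle kinetics, 8 concentrations. KD from 1:1 binding-model fit of sensorgrams.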

Assay [2] addresses T2, mouse FAP (Mus musculus, UniProt P97321).
T2 construct: biotinylated His, Avi tag, mouse FAP (26-761, FAP-M82Q5); His; Avi tag (biotinylated); purchased AcroBiosystems FAP-M82Q5
T2 sequence (P97321 26-761): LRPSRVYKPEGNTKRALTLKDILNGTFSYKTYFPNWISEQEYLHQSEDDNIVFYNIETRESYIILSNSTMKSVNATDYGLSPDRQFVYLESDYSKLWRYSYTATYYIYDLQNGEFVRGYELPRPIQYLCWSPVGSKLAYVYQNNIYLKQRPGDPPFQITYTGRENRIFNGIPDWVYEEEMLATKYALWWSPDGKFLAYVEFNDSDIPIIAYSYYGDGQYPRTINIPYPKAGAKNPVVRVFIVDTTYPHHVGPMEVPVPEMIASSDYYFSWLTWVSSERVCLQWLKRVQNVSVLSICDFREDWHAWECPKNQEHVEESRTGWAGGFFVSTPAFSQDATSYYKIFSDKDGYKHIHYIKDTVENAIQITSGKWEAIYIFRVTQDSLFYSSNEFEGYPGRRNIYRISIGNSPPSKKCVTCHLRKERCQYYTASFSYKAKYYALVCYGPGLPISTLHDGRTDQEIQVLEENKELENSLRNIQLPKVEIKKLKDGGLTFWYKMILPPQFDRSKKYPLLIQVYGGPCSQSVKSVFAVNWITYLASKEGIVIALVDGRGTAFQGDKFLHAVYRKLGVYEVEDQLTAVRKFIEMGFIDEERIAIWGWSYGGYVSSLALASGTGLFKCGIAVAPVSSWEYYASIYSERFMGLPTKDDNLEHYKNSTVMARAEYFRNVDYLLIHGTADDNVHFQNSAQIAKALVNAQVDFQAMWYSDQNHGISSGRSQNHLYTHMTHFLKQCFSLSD
The assay is described as follows: Enzymatic FAP competition assay (Z-Gly-Pro-AMC fluorescence), mouse FAP. Format: biochemical. The settings on record: read-out: m. FAP, Enz., IC50. An outline of the steps: (§2)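 Biotinylated His/Avi-tagged FAP ectodomain (human 26-760, mouse 26-761) at 0.01 nM, preincubated 24 h with peptides (14 concentrations, up to 1 μM) in pH 7.5 phosphate, 150 mM NaCl, 0.05% Tween20, 1% DMSO. Then 50 μM Z-Gly-Pro-AMC, 4 h at 22-24° C; AMC fluorescence (380/460 nm) gave IC50 from duplicate points.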

Assay [3] deals with T2, mouse FAP. In words: Surface plasmon resonance (SPR) for peptide affinity, mouse FAP. Format: binding. Put shortly:
as §1
(SPR reads the build-up and loss of mass on a sensor chip optically.)

Assay [4] addresses T1, human FAP. The assay is described as follows: Enzymatic FAP competition assay (Z-Gly-Pro-AMC fluorescence), human FAP. Format: biochemical. The settings on record: read-out: h. FAP, Enz., IC50. Put shortly:
as §2

For orientation: Kd means the equilibrium constant for the complex coming apart. Broadly, the IC50 is the concentration that inhibits the measured activity by half. Take `CCCCC[C@@H]1NC(=O)[C@H](Cc2ccc(OCCNC(=O)COCCOCCOCCNC(=O)CC(CC(=O)NCCOCCOCCOCC(=O)NCCOc3ccc(C[C@@H]4NC(=O)[C@H](Cc5ccccc5)N(C)C(=O)CNC(=O)[C@H](CCCCNC(=O)N5CCN(CC(=O)O)CC5)NC(=O)[C@H]5CCCN5C(=O)[C@H](CC(=O)O)NC(=O)[C@H](Cc5ccc(O)cc5)NC(=O)CNC(=O)[C@H](Cc5c[nH]c6ccccc56)NC(=O)[C@H](CCCCC)NC4=O)cc3)NC(=O)CN3CCN(CC(=O)O)CCN(CC(=O)O)CCN(CC(=O)O)CC3)cc2)NC(=O)[C@H](Cc2ccccc2)N(C)C(=O)CNC(=O)[C@H](CCCCNC(=O)N2CCN(CC(=O)O)CC2)NC(=O)[C@H]2CCCN2C(=O)[C@H](CC(=O)O)NC(=O)[C@H](Cc2ccc(O)cc2)NC(=O)CNC(=O)[C@H](Cc2c[nH]c3ccccc23)NC1=O` [Example M4] (I: cyclo(K([CO-Piperazinyl(4-CH2COOH)])G[NMeF][AEF][Ahp(2)]WGYD[dP]) / II: cyclo(K([CO-Piperazinyl(4-CH2COOH)])G[NMeF][AEF][Ahp(2)]WGYD[dP]); linker I:4-II:4 via X2): the Kd at human FAP [1] stood at 0.32 nM; on mouse FAP [3], 0.51 nM. Besides, the IC50 on mouse FAP [2] turned out to be 1.1 nM; on human FAP [4], 0.38 nM.
For “Gly-Gly-NMePhe-F4(amMeGlyDOTALu)-Ahp-Trp-Gly-Tyr-Asp-D-Pro (cyclo(GG[NMeF][F4(amMeGlyDOTALu)][Ahp(2)]WGYD[dP]); also: Lu complex) [Example C8]”, the Kd with human FAP [1] was 0.004 nM; in the assay with mouse FAP [3] it was 0.006 nM. The IC50 with mouse FAP [2] was 0.012 nM; with human FAP [4], 0.007 nM.
As to “Gly-Gly-NMePhe-F(4OEtNHDOTA-Lu)-Ahp-Trp-Gly-Tyr-Asp-D-Pro (cyclo(GG[NMeF][F(4OEtNHDOTA-Lu)][Ahp(2)]WGYD[dP]); also: Lu complex of DOTA) [Example C23]”, the Kd is less than 0.009 nM with human FAP [1], less than 0.011 nM in the assay with mouse FAP [3] and less than 0.06 nM with mouse FAP [3] (values marked ** : including further experimental repetition). The IC50 came to 0.061 nM with mouse FAP [2] and 0.016 nM in the assay with human FAP [4].
Take “Gly-Gly-NMePhe-F(4amPEG2NHDOTA-Lu)-Ahp-Trp-Gly-K(COpipzaa)-Asp-D-Pro (cyclo(GG[NMeF][F(4amPEG2NHDOTA-Lu)][Ahp(2)]WGK(COpipzaa)D[dP]); also: Lu complex) [Example C13]”: the Kd in the assay with human FAP [1] was less than 0.011 nM; in the assay with mouse FAP [3], 0.024 nM. Besides, the IC50 with mouse FAP [2] turned out to be 0.011 nM; in the assay with human FAP [4] it was 0.004 nM.
“Gly-Gly-NMePhe-F(4amPEG2NHDOTA-Lu)-Q(Pyrro(2CN4F2))-Trp-Gly-K(COpipzaa)-Asp-D-Pro (cyclo(GG[NMeF][F(4amPEG2NHDOTA-Lu)][Q(Pyrro(2CN4F2))]WGK(COpipzaa)D[dP]); also: Lu complex) [Example C19]”: the values for the Kd with human FAP [1] and with mouse FAP [3] were less than 0.018 nM and less than 0.04 nM, respectively. In addition, the IC50 with mouse FAP [2] came to 0.031 nM; in the assay with human FAP [4], 0.018 nM.
Regarding “Gly-Gly-NMePhe-F(4amPEG2NHDOTA-Lu)-hS(Pr)-Trp-Gly-K(COpipzaa)-Asp-D-Pro (cyclo(GG[NMeF][F(4amPEG2NHDOTA-Lu)][hS(Pr)]WGK(COpipzaa)D[dP]); also: Lu complex) [Example C2]”, the Kd in the assay with human FAP [1] is less than 0.008 nM; with mouse FAP [3], less than 0.036 nM. Moreover, the IC50 stood at 0.023 nM with mouse FAP [2] and 0.009 nM with human FAP [4].
Regarding “Lys(DOTA-Lu)-Gly-NMePhe-Tyr-Ahp-Trp-Gly-Tyr-Asp-D-Pro (cyclo(K(DOTA(Lu))G[NMeF]Y[Ahp(2)]WGYD[dP]); also: Lu complex) [Example C22]”, the values for the Kd in the assay with human FAP [1] and in the assay with mouse FAP [3] were 0.41 nM and 0.64 nM, respectively. For the same compound, the IC50 is 1.1 nM with mouse FAP [2] and 0.43 nM in the assay with human FAP [4].
